Columns and labels:
[1] = target: T1, human FcγRIIb extracellular domain with C-terminal His-tag (human, UniProt P31994 43-217); assay: SPR; FcγRIIb at 1000 nM, bound amount per unit captured Ab
T1 construct: extracellular domain; also called hFcγR IIb
T1 sequence (looked up): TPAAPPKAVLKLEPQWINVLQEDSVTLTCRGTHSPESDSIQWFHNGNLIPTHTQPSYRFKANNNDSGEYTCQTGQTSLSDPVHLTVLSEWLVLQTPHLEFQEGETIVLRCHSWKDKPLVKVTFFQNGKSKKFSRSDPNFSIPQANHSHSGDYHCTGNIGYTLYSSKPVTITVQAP
Experimental: (§1) The interaction between the generated antibodies and human FcγRs was analyzed by the following method using Biacore T200. 50 mM Na-Phosphate, 150 mM NaCl, 0.05% Tween20 (pH 7.4) was used as the running buffer, and the assay was performed at 25° C. For the sensor chips, Series S SA (GE Healthcare) chips onto which CaptureSelect Human Fab-lambda Kinetics Biotin Conjugate (Thermo Fisher Scientific) was immobilized were used. The antibodies of interest were captured onto these chips and each FcγR diluted in the running buffer was allowed to interact with them. Chips were regenerated with 10 mM Glycine-HCl (pH 1.5) and 25 mM NaOH, and assay was performed by repeatedly capturing antibodies. The dissociation constants KD (mol/L) for FcγRs of each antibody were calculated using Biacore T200 Evaluation Software 2.0, using the 1:1 Langmuir binding model for FcγRIa and FcγRIIIa and the steady state affinity model for FcγRIIa. For FcγRIIb, the binding amount of FcγRIIb per unit amount of antibody was calculated by correcting the binding amount of FcγRIIb obtained from the sensorgram obtained by the measurement with the amount of antibody captured onto the chip surface.

[2] = target: T2, human FcγRIIIa V allotype extracellular domain with C-terminal His-tag (human, UniProt P08637 17-208); assay: SPR; KD of 04H1637-G1m/04L1610-lam1 divided by KD of variant;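 further: biacore T200 SPR at 25 °C, antibodies captured on anti-Fab-lambda SA chip with receptor as analyte, running buffer pH 7.4 for FcγRs and pH 6.0 for FcRn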
T2 construct: extracellular domain; also called hFcγR IIIa V
T2 sequence (P08637 17-208 F176V): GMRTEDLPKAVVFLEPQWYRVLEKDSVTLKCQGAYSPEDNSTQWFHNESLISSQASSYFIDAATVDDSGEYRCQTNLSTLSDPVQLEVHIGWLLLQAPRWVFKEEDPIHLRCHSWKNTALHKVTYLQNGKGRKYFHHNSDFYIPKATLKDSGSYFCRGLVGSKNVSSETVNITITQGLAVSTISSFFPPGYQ
Experimental: as §1
(§2) The interaction between the generated antibodies and human FcRn was analyzed by the following method using Biacore T200. 50 mM Na-Phosphate, 150 mM NaCl, 0.05% Tween20 (pH 6.0) was used as the running buffer, and the assay was performed at 25° C. For the sensor chip, Series S SA (GE Healthcare) chips onto which CaptureSelect Human Fab-lambda Kinetics Biotin Conjugate (Thermo Fisher Scientific) was immobilized were used. The antibodies of interest were captured onto these chips and FcRn diluted in the running buffer was allowed to interact with them. Chips were regenerated with 10 mM Glycine-HCl (pH 1.5) and 25 mM NaOH, and assay was performed by repeatedly capturing antibodies. The dissociation constant for FcRn of each antibody was calculated using the steady state model, using Biacore T200 Evaluation Software 2.0.

[3] = target: T3, human FcγRIIIa F allotype extracellular domain with C-terminal His-tag (human, UniProt P08637 17-208); assay: as above
T3 construct: extracellular domain; also called hFcγR IIIa F
T3 sequence (P08637 17-208): as the sequence (P08637 17-208 F176V) above, with V160F counted along it
Experimental: as §1, §2

[4] = target: T4, human FcγRIa extracellular domain with C-terminal His-tag (human, UniProt P12314 16-292); assay: as above
T4 construct: extracellular domain; also called hFcγR Ia; hFcγRIa
T4 sequence (P12314 16-292): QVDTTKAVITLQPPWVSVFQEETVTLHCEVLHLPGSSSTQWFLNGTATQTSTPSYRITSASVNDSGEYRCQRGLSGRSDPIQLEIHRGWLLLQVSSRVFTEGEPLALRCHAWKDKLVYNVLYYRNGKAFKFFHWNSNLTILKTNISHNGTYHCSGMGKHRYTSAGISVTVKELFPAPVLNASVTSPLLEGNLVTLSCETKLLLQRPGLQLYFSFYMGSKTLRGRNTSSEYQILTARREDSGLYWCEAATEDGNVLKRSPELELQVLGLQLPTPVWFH
Experimental: as §1, §2

[5] = target: T5, human FcγRIIa R allotype extracellular domain with C-terminal His-tag (human, UniProt P12318 34-217); assay: as above
T5 construct: extracellular domain; also called hFcγR IIa R
T5 sequence (looked up): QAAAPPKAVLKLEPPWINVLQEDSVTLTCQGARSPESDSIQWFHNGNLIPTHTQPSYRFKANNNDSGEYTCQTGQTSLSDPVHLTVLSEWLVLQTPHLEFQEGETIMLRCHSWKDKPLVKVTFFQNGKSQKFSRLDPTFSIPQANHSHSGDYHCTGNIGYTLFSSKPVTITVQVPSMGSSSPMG
Experimental: as §1, §2

[6] = target: T6, human FcγRIIa H allotype extracellular domain with C-terminal His-tag (human, UniProt P12318 34-217); assay: as above
T6 construct: extracellular domain; also called hFcγR IIa H
T6 sequence (looked up): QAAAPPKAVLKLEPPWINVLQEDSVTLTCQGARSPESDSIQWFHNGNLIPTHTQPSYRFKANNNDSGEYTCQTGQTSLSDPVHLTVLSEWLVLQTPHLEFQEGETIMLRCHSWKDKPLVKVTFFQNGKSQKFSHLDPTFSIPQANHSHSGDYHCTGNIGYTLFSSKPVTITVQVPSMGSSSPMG
Experimental: as §1, §2

[7] = target: T1, human FcγRIIb extracellular domain with …; assay: SPR; binding amount divided by that of 04H1637-G1m/04L1610-lam1
[8] = target: T2, human FcγRIIIa V allotype extracellular …; assay: SPR Biacore T200, Ab captured via Fab-lambda, pH 7.4, 25C;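 further: antibodies captured on a streptavidin chip carrying biotinylated anti-Fab-lambda, with each FcγR injected as analyte in phosphate buffer. KD fitted by 1:1 Langmuir or steady-state model depending on receptor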
Experimental: as §1

[9] = target: T3, human FcγRIIIa F allotype extracellular …; assay: as above
Experimental: as §1

[10] = target: T4, human FcγRIa extracellular domain with …; assay: as above
Experimental: as §1

[11] = target: T5, human FcγRIIa R allotype extracellular …; assay: as above
Experimental: as §1

[12] = target: T6, human FcγRIIa H allotype extracellular …; assay: as above
Experimental: as §1

B1: 04H1637-Kn462/04L1610-lam1//04H1637-Hl441/04L1610-lam1 (antibody, human IgG1, lambda)
heavy 1: QVQLVESGGGLVKPGGSLRLSCAASGFTFSSKTMNWVRQAPGKGLEWVSSISTQSHYIYYAESVRGRFTISRDNAKNSLYLQMNSLRAEDTAVYYCARYGKREDMLWVFDYWGQGTLVTVSSASTKGPSVFPLAPSSKSTSGGTAALGCLVKDYFPEPVTVSWNSGALTSGVHTFPAVLQSSGLYSLSSVVTVPSSSLGTQTYICNVNHKPSNTKVDKKVEPKSCDKTHTCPPCPAPEFQWGPMVFLFPPKPKDVLMISRTPEVTCVVVDVSDEEPEVKFNWYVDGVEVHNAKTKPREEQYNATYRVVSVLPVLHQDWLNGKEYKCKVSNDALPAPIEKTISKAKGQPREPQVCTLPPSRDELTKNQVSLWCLVKGFYPSDIAVEWESNGQPENNYKTTPPVLDSDGSFFLYSKLTVDKSRWQQGNVFSCSVMHEALHNHYTQKSLSLSP
heavy 2: QVQLVESGGGLVKPGGSLRLSCAASGFTFSSKTMNWVRQAPGKGLEWVSSISTQSHYIYYAESVRGRFTISRDNAKNSLYLQMNSLRAEDTAVYYCARYGKREDMLWVFDYWGQGTLVTVSSASTKGPSVFPLAPSSKSTSGGTAALGCLVKDYFPEPVTVSWNSGALTSGVHTFPAVLQSSGLYSLSSVVTVPSSSLGTQTYICNVNHKPSNTKVDKKVEPKSCDKTHTCPPCPAPELLAGPSVFLFPPKPKDVLMISRTPEVTCVVVDVSHEEPEVKFNWYVDGVEVHNAKTKPREEQYNATYRVVSVLPVLHQDWLNGKEYKCKVSNDALPAPIEETISKAKGQPREPQVYTLPPSRCELTKNQVSLSCAVKGFYPSDIAVEWESNGQPENNYKTTPPVLDSDGSFFLVSKLTVDKSRWQQGNVFSCSVMHEALHNHYTQKSLSLSP
light: QSALTQPPSASGSPGQSVTISCEGPSTGVGDYNWVHWYQQHPGKAPKLMIYFTSKKPSGVPDRFSGSKSGNTASLTVSGLQAEDEADYYCQTYAAPLGPMFGGGTKLTVLGQPKAAPSVTLFPPSSEELQANKATLVCLISDFYPGAVTVAWKADSSPVKAGVETTTPSKQSNNKYAASSYLSLTPEQWKSHRSYSCQVTHEGSTVEKTVAPTECS
notes: Heterodimerized antibody; also called 04H1637-Kn462/04L1610-lam1//04H1637-H1441/04L1610-lam1
Binding amount [1]: 0.013
Relative value to KD between G1m and hFcγRs [2]: 45.8
Relative value to KD between G1m and hFcγRs [3]: 79.5
Relative value to KD between G1m and hFcγRs [4]: 0.3
Relative value to KD between G1m and hFcγRs [5]: 9.2
Relative value to KD between G1m and hFcγRs [6]: 20.9
Relative binding amount [7]: 1.6
Kd [8]: 5.2 nM
Kd [9]: 17 nM
Kd [10]: 0.15 nM
Kd [11]: 220 nM
Kd [12]: 70 nM
